Reference: paper PMC2805716, “Critical Structural and Functional Roles for the N-Terminal Insertion Sequence in Surfactant Protein B Analogs” (PLoS ONE, 2010)
Values belong to the molecule of their own block, whether it stands above or below them.

Experiments:
[1] = ESR, ref [30], cited from earlier work
Source text: Although the “10 nsec” MD simulation of dimer S-MB provides a reasonable framework to account for our SDS-PAGE and SPR results (Figs. 8 and 10), it is worthwhile to consider other structural models by which the N-terminal insertion sequence may promote the self-association of S-MB. One possible alternative is that oligomeric S-MB may be due to the N-terminal sequence (residues 1-7) forming β-sheet. The N-terminal SP-B(1–9) (Fig. 2) was earlier proposed to act as a ‘biochemical Velcro®,’ facilitating in vivo either the aggregation of SP-B or the interactions of SP-B with SP-C [50]. In support ...

[2] = lipid monolayers containing palmitic acid; ref [31], [32]; cited from earlier work
Source text: (§1) Previous structural and functional studies with synthetic peptides representing the N- and C-terminal regions of SP-B further support the hypothesis that these charged amphipathic helices participate in surfactant activities. […] The cationic N-terminus of SP-B may here interact with anionic lipids to remove the driving force for lipid squeeze-out from the surface film, [32]. In additional studies, SP-B(1–25 ...

[3] = test system: surfactant-deficient animal models; settings: ref [34]–[37]; cited from earlier work
Source text: as §1

[4] = biological target: the molecule itself; experiment: SDS-PAGE; 4 µg peptide in 8 µl buffer (50 mM MOPS, 50 mM Tris, pH 7.7, 0.1% SDS, 1 mM EDTA), neither heated nor reduced; 16% acrylamide gel; Coomassie blue and silver staining; molecular weight markers 2.5-16.9 kDa
[5] = biological target: T1, Cys-MB (Mini-B with a cysteine added to its N-terminus, chip-linked) (human); experiment: SPR; Biacore 3000; Cys-MB or Cys-S-MB linked to a thiol chip; MB or S-MB at 1 µg peptide/ml in HBS-EP (10 mM Hepes, pH 7.4, 150 mM NaCl, 3 mM EDTA, 0.005% surfactant P20) flowed over at 50 µl/min, 37°C; constants from curve fitting at the one concentration; settings: both partners purified
T1 construct: cysteine added to the N-terminus to link the peptide to the thiol Biacore chip; surfactant protein B (SP-B), human, residues 8-25; numbers count on: the mature protein (79 residues); surfactant protein B (SP-B), human, residues 63-78; Immobilised on the SPR chip; also called chipped MB; N-terminal Cys-MB
T1 chain: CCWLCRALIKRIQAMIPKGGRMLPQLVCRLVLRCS

[6] = biological target: T2, Cys-S-MB (Super Mini-B with a cysteine added to its N-terminus, chip-linked) (human); experiment: as above; settings: both partners purified
T2 construct: cysteine added to the N-terminus to link the peptide to the thiol Biacore chip; surfactant protein B (SP-B), human, residues 1-25; numbers count on: the mature protein (79 residues); surfactant protein B (SP-B), human, residues 63-78; Immobilised on the SPR chip; also called chipped S-MB; N-terminal Cys-S-MB
T2 chain: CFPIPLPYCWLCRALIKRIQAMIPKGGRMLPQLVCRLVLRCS

Molecule: SP-B(1–25): synthetic peptide based on the N-terminal domain of SP-B, residues 1–25 (FPIPLPYCWLCRALIKRIQAMIPKG; Pulmonary surfactant-associated protein B; UniProt P07988 201-225, looked up, fragment)
aggregation ([1]; PBS, spin-labeled at Phe-1): primarily aggregated in PBS | aggregation upon addition of SDS micelles ([1]; SDS micelles added): addition of SDS micelles rapidly dissociated these SP-B(1–25) aggregates | collapse pressure of lipid monolayers [2]: increase the collapse pressure | oxygenation and lung compliance [3]: improved oxygenation and lung compliance

Kd [5]: 52.1 nM | koff [5]: 0.00736 s⁻¹ | kon [5]: 141000 M⁻¹ s⁻¹ | Kd [6]: 20.1 nM | koff [6]: 0.000901 s⁻¹ | kon [6]: 44700 M⁻¹ s⁻¹
B1: Super Mini-B (peptide)
chain: FPIPLPYCWLCRALIKRIQAMIPKGGRMLPQLVCRLVLRCS
notes: numbers count on: the mature protein (79 residues); surfactant protein B (SP-B), human, residues 63-78 (C-terminal helix region); the split into the two SP-B stretches follows the stated ranges (1-7 plus 8-25, and 63-78); Oxidised form with intramolecular disulfides Cys-8 to Cys-40 and Cys-11 to Cys-34; also called S-MB; SMB; source: synthetic peptide (Fmoc solid phase, HPLC-purified, …)
stoichiometry N [4]: 2
